{"source": "paper doi:10.1101/2020.03.02.972562", "molecular_target": "RSC complex (budding yeast (S. cerevisiae) (endogenous in BJ3505)) (UniProt P32597)", "sequence (P32597 whole entry, looked up, one chain of several)": "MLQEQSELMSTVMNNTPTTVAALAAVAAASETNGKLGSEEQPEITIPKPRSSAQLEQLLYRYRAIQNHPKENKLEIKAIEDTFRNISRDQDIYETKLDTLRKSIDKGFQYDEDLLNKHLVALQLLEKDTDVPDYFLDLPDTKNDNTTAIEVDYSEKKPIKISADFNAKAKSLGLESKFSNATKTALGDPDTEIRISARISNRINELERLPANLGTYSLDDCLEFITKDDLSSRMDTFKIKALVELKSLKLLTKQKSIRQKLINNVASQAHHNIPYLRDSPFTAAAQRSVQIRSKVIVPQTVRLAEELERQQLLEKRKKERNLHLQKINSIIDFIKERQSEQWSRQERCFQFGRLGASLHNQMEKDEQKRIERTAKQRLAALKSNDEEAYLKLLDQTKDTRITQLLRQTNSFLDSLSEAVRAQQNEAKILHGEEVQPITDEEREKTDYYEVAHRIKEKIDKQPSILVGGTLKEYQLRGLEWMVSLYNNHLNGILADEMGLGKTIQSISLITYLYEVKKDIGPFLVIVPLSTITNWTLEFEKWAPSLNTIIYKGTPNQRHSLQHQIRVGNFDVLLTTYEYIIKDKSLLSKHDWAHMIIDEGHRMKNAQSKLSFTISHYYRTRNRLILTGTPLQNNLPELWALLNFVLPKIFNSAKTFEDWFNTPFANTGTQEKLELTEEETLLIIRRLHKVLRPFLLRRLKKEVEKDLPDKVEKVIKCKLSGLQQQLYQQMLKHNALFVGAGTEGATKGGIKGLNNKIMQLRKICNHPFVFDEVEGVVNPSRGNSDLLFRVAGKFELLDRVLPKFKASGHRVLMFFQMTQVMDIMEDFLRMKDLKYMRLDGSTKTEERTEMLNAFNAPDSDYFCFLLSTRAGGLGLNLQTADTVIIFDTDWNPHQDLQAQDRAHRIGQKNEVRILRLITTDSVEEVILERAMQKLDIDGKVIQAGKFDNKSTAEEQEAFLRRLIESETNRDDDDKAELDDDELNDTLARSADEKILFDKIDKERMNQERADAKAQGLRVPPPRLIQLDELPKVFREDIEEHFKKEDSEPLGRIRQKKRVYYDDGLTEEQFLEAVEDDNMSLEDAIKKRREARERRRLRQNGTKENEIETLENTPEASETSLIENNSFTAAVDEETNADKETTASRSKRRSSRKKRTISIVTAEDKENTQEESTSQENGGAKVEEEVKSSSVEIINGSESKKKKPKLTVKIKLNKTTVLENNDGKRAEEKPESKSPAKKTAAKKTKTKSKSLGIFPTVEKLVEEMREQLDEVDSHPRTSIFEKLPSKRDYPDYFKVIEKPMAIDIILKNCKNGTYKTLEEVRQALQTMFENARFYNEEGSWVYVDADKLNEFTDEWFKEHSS", "experiment": "BLI"}
{"substance": "SUMOylated nucleosome core particles (from UniProt P68431 1-136; P62805 1-103; P04908 1-130; P02281 6-126) (complex)", "values": [{"measurement": "fold affinity against unmodified NCPs", "value": 2, "unit": "fold"}]}
